Data on 20 sequences can be found in a protein production outcome set (Wang et al. 2014).

The data set is described as follows: label from the status in PepcDB records.

“MNPFQNSFGGHIPQDVAGKQGENVIFIVYNLTDSPDTVDKVKDVCANFSAMIRSMRNRFPDMQFSCTMGFGADAWTRLFPDKGKPKELSTFSEIKGEKYTAVSTPGDLLFHIRAKQMGLCFEFASILDEKLKGAVVSVDETHGFRYMDGKAIIGFVDGTENPAVDENPYHFAVIGEEDADFAGGSYVFVQKYIHDMVAWNALPVEQQEKVIGRHKFNDVELSDEEKPGNAHNAVTNIGDDLKIVRANMPFANTSKGEYGTYFIGYASTFSTTRRMLENMFIGSPAGNTDRLLDFSTAITGTLFFVPSYDLLGELGE”: the protein production result is on record as “not failed”. The entry for “MNPIEFWFDFSSGYAFFAAQRIEALAAELGRTVLWRPYMLGAAFSVTGARGLSSTPLKRDYAQRDWARIARQRGLTFRPPADHPHVALAATRAFYWIEAQSPDAATAFAQRVFDLYFSDRLDTASPEAVSRLGPEVGLEPEALLAGIADPALKETVRKIGEDAVARGIFGSPFFLVDDEPFWGWDRMEMMAEWIRTGGW” is “not failed”; for “MNPITELLDATLWIGGVPILWREIIGNVFGLFSAWAGMRRIVWAWPIGIIGNALLFTVFMGGLFHTPQNLDLYGQAGRQIMFIIVSGYGWYQWSAAKRRALTPENAVAVVPRWASTKERAGIVIAAVVGTLSFAWIFQALGSWGPWADAWIFVGSILATYGMARGWTEFWLIWIAVDIVGVPLLLTAGYYPSAVLYLVYGAFVSWGFVVWLRVQKADKARALEAQESVTV” it is “failed”. The entry for “MNPKKLAFYLWLLLVAGGITAYFLYPDEINILFLEDLSEEYYYVALIIYFLLLSARGLTMIPSTPLLLAGVLTFDPLELFIVNMAGILSSSTIVYYFSKFLGFDSYFETKHGKYVRKIRRGLTDKELPVIVGWSFFPLVPTDLIVYVGSSLKIPLLKCLLGVFVGESVLNAFYIFSTNLILKL” is “failed”; for “MNPLDVWYNIKMNVKKQIFKGTLYAVVAGCMWGISGIFGQLFFRDYHGSPLWITSTRLTIAGIILLAMSFSRDHKRFFDVWKSKKNMPTLFLYVFGGVFSVQYFYYVAIQLSNSATATILQYTAPVFIMLYLLIFQRQVPKPKSVLFVILAMIGVFLLITDGNIKHLSISPLALVTGLLAGVAVVIYSIIPRPLLDKYGALNMTGWGMMLAGIACNIFYPVWRIDFRIEPLSIFYVLTISIVGTALAFLLLLRAFQLISPLVVSVATATEPLTSVFLSIPLFGLKLTPLELLGIVMVIVSVILLSKSEQA” it is “failed”; for “MNPLKAGDIAPKFSLPDQDGEQVNLTDFQGQRVLVYFYPKAMTPGCTVQACGLRDNMDELKKAGVDVLGISTDKPEKLSRFAEKELLNFTLLSDEDHQVCEQFGVWGEKSFMGKTYDGIHRISFLIDADGKIEHVFDDFKTSNHHDVVLNWLKEHA” it is “not failed”. The entry for “MNPMAIISITAFVVALVSGVYIFVKNPESRFNRALLLFSALIAYLSLTDFGLYISESYMMADFWVRMGFLWPIVVPVILHMVLLFTGRRPTMPLLAVIYAPAVVIAALELTTDLITAGPTMTSWGWTFSAAENSLPYQISNIWGFIIASVAIILVALHWRSSRGSDRTQAHYLLTGLILPVLAGVLTDLVLPAAGMAVPSLTDPSAALGVSIIAYGVMRFRLPILSPLNAAMDIVRNMNTFLIITDLGLNIHYVNPATERLTGRRAAEFSGRKVTEVLKFDELSTGSIMESRLRGKDEWIPVIVSAGHVHGSGGEHLGLLFTGSDMRPILEMEEKLRRREDRLVLLTEHMADGLGEFDRDFNFRYLSPSVKKITGYDHEMLTGMSALDFMDYLHPDDTEEVKKLILTRGEGHRATFRIRRPDGNYRWVEYVDRPIRTDGDIEGYVFGLRDIHEHKLAEEALIVSKEKFRELFRNMRSGIIAVESDGKGFRVKSMNPAAERMEGVSCAAIQGMDLQEALPEIWNSPIRRALQEIRETGEAIHCPEVECGEGWFDVHLHQLSTGEVVIICTDITLRKQYEDELRASLREKEALLREVHHRVKNNFQVISSLINLQLDDAEDPAPLRDLQSRIQSMALVHELLYESEDLTSIDMGRYIERLTSSIVNSHHNGEIEVEVAVGDITLPLETAIPLGLIINELVTNSFKHAFTSGGMISVELEEHGGEFTLTITDNGVGLPPDFIIEDSDSLGLRLVAGLVDQIDGTLEVSGEDGTRFRLTFGVVPYRRRV” is “failed”. Turning to “MNPTAGKTSATGEQMASTSADTYSPSRDDFAAMLDESFAGGNLQESSVVKGKVVAIEKDMAVIDVGLKTEGRVALREFSGPGRDSEIKVGDEVEVFLDRIENALGEAVLSRDKARREESWGKLEKAFQNNEKVNGVIFNQVKGGFTVDLDGAVAFLPRSQVDIRPIRDVAPLMNNSQPFQILKMDRRRGNIVVSRRTVLEETRAEQRQELVQNLEEGQVIDGVVKNITDYGAFVDLGGIDGLLHVTDIAWRRVNHPTEVLSIGQTVKVKIIKINHETHRISLGMKQLLDDPWQGIEAKYPLGARFTGRVTNITDYGAFVELEPGIEGLIHVSEMSWTKKNMHPGKIVSTSQEVEVQVLEVDSVKRRISLGLKQTMRNPWEVFVEGHPTGSVVEGEVKNKTEFGLFLGLEGDVDGMVHLSDLDWKLPGEQVIDNYKKGDMVKAVVLDVDVEKERISLGIKQLEGDPFAEPGDVKKGAVVTCEVLEVKESGIEVKIAGTDFTTFIKRSELARDRNDQRAERFAVGEKVDARVIQFDKKARKVQVSIKALEVAEEKEAIAQYGSSDSGATLGDILGTALKNRDSK”, the protein production entry is on record as “failed”.

On to “MNQAMDTKQIAPFTLALPEGEALPLVCDSPHSGTFYPADFGAVVAPERLRGGEDTHVDALWEAVPRVGGTLLAATFPRVYIDPNRMLDDIDPAQLEGPWPTPLAPGEKTRLGYGLIWSNVDAATPIYDRKLTVAEVQRRINRYYRPYHAALTEAVEGAYQRFGAVWHLNLHSMPNNAYERLKIQSPRPLADFVLGDRDGTTCEPGLVDLVERELREKGYTVARNDPYKGVQLIAQIGRPAERRNSLQIEIRRPLYMEEGTRERNEGFATLQRDLTLLTLRIAEYVRRGV”, for which the protein production entry is given as “not failed”.

Take “MNQLTQYTITEQEINQSLAKHNNFSKDIGLPGVADAHIVLTNLTSQIGREEPNKVTLTGDANLDMNSLFGSQKATMKLKLKALPVFDKEKGAIFLKEMEVVDATVQPEKMQTVMQTLLPYLNQALRNYFNQQPAYVLREDGSQGEAMAKKLAKGIEVKPGEIVIPFTDLEHHHHHH”: the protein production entry is recorded as “not failed”.

As to “MNQNNHFRLTLSTLLQQCQQDITSLPTAMRAVFSWQRGLNELKTLRRTTKLMMSTMLIVTIIGFILGRDYSLHGWIGLLTGITVVINLILVDQGRLTNYSWGIIACAAWLTTAITNRLIGDIASQSFYLIMQFVGITVWHRKMAAQPDASELTGRKLSKLAGCAWFALAVLVYAIVLHFSKQLNGNQIYLDATLLPLGIVGSVLMVNGYRSQWVAWITLDVINVIIWFNQLKGFSPAAASMLALQLVMLANALYGAYLWFFGQNTQQDKLDTH”, the protein production result is given as “failed”. Take “MNQNQNKKTKIVALSMMNSQTSGNPSRGTTKFESYTFDYWQYIDTLVYWGGSSGEGIIVTPSADVIDEAHSNGVPVLGTIFLPPKEYGGKVDWVKTMLKKDEQGQYPFASQMVKVAKTYGFEGWFINEETQGLNADDAANMKALIQQVKKEDSSLQIMWYDAMTKDGKVDWQNQLNDQNATFVQDKAADAMFLNFWWTQNNLADQKLLEKSNLYAKNHNIDPYNIYAGIDVQAKDVQTPVKWNLLEKGNQATQTSIGLYAASATYTNASNWDDFQNRESAFWVNQKADPRQVDHSVNESWTGLSKYVLEKSAISGNEFNTNFNLGNGYNYFKAGQKISEMDWNDRSLAGILPSYRWIIDNEGKNKISPSFDFANAYNGGNSLKFMAEHLDAGKSSNITLFASDLKIAMGAKFSVSMRSDQALKVSAILELANGQKVSIAGDKSLTENWSKLEHHHHHH”: the protein production result is “not failed”. Turning to “MNQQDIKQKVLDVLDHHKVGSLATVAAGAPHSRYMTFFHDGLTIYTPTSKETHKAEEIENNPNVHILLGYDCEGFGDAYVEVAGKAKINNSAELKDKIWSSKLERWFDGKDDPNLVILEIEPEDIRLMNAGEKTPVSLEL”, the protein production result is recorded as “not failed”. The entry for “MNQQLLAKTFVELADNLVADFDLIDFLRLLTDRCVGMLDASAAGVLLADRNGELRVMAASDEQVRLLELFQLQNDEGPCLDCFRTGAPVTVPDLSAVTARWPRFAVQARRSGFGAVQALPMRLRDEVVGALNLFRATPGPFDPAATPLAQALADVATISLLQQRTAHRSTVLNEQLQTALN” is “not failed”; for “MNQRLDHYLKNTNQCETRSKAIDLIKRGRVFVNNFQVLKPSFLVKQTDSVEIKNDEMYFVSKGGYKLLKIIKEINLIIKNFVIADLGSSTGGFTDCCLQLGAKKIYAIDVGVDLLHPSLKKSYKIINYEKTNVKNLDKSYFLEDLDLIVGDLSFISLEQIFPIIKKISSPKTLLLLLIKPQFELGKDVASKYKGLIQNQKLQQLAINKIINLAKNYDFECKHLTPTDIFDEKKQNQEYMIFLQKHEK” it is “failed”. The entry for “MNRFLTSIVAWLRAGYPEGIPPTDSFAVLALLCRRLSHDEVKAVANELMRLGDFDQIDIGVVITHFTDELPSPEDVERVRARLAAQGWPLDDVRDREEHA” is “not failed”; for “MNRHISFERLHNFRDLGGYTTADGRVVRWGRLFRSDSLGKLTGEEWERFLALGIGTVIDLRYPWEIDAKGRVPEHPAFTYHNLSIEHRPYDQAGLGPDVETGPFLAEKYMEVAHDGVKELRQVVEVIAAVATSTDESVVFHCASGKDRTGLVAALVLALLGVPESQIVEDFTLTELATERLLADWRADHPGQEPTWPGYGRAPADVMRLFLDALTHQHGSMADYARDLLRIDEGLIAALRRNLLEPAAEPELTFRRADHRDLPELVRLRDSAARWQIARGIDQWKPGQLGEDHFRARLADGEIWIATLGPTGPTAGAWELWWDDPAAWGPQPPSAGYVHRLMTDRRTAPPGTGRLMLAEAERRIAETGRTLCRLDCLASNPRLRQYYETAGYTVVGEQSSKDGGLGNTYAVTLLEKTVPEALTPRSTKPAR” it is “failed”; for “MNRKFTARGPKRIEWAPHSCYHRKAHGFRPGTLSARHRSVRTPRSIVGIRTPHPHPNPTDHDFATMTIRQSALFALALGTLGLLALSGCSAGNPNMSAAEDAMEQERYERALANVDSAIAQDSANAQAYAMKARILRQMADSTAPPEAYKQRYRQARQAEEKAIKFDPGRRSDIKNQRELAFIQEFQKGADAFNRAQQSSQKSDYLRAAAYFGAAGAIRPDSTGPIRNEAFARLQAARLEGGDQGMQEMSNVIPILERYLKKEDEPEKDVYSILSQLYRQGDQPERALEVTERALDDLSSRPTHFRIQGTRGLSYTGTIEAGGTSRQVEGTTPDRIELSTSDGMVTGTFRKQDGGKKQTKGRLQVGLYTQGTQVANSRTTALEEITISEDLSSVTPLAELQNQRLSALNSTGNTEKAMQAYRQQIERNPENARYRYNYGSLLLNSDRYDEAIEQLSEAVKLDSDDPKKQYNLGAAYLNKGVVLQDSLVSVRDSVMAQNRKPTQEEAQMIEDLDEQRLQFFQNAIPPLERARQLSGANGRYRQNACSALLQAYVQTEQTDKAEDVKQCAGAGGNTSGGSGGR” it is “failed”. The entry for “MNRKMFGELISEAIAMFIIIALGESAAAMYILYDPSPYQNAYWGLCICWGLAVTIAIYVTASVSGTHANPAVTLALALYRGFPWKKVLPYWAAQVIGAFIGAMIVYQLYSPVIDYYNHIHQLTRDAGGAAGVFFTSTGMAITPIHALGDEIILTAFLVFGIFAITERFNEAAPTANSGALVIGLLVATIGACMGYLEGWAINPARDLGPRLFAFLAGWGESAFPGKDHYWWIPIIGPLIGGVMGATAFQCLIYPFLPARVQAKQQAAILLHRKHP” is “failed”; for “MNRLLNEKVEEFKKGVLKAGWFIEKMFRNSISSLVERNESLAREVIADEEVVDQMEVEIQEKAMEVLGLFSPIGKPLLTVTAGIRVAELIENIADKCHDIAKNVLELMEEPPLKPLEDIPAMANQTSEMLKFALRMFADVNVEKSFEVCRMDSKVDDLYEKVREELLLYMMESPKYVKRALLLLEIAGNIEIIADYATNIVEVSVYMVQGEAYKCYHDELLLFKKSGGVLFESSD” it is “not failed”.
